± gives the uncertainty stated by the source.
Assay: self-splicing fitness, log relative to wild type (ln ratio); higher = more splicing; Tetrahymena group I intron in knt gene, E. coli kanamycin selection, DiMSum; sequences stand for … in CUCUCU…GGAGGGAAAAGUUAUCAGGCAUGCACCUGGUAGCUAGUCUUUAAACCAAUAGAUUGCAUCGGUUUAAAAGGCAAGACCGUCAAAUUGCGGGAAAGGGGUCAACAGCCGUUCAGUACCAAGUCUCAGGGGAAACUUUGAGAUGGCCUUGCAAAGGGUAUGGUAAUAAGCUGACGGACAUGGUCCUAACCACGCAGCCAAGUCCUAAGUCAACAGAUCUUCUGUUGAUAUGGAUGCAGUUCACAGACUAAAUGUCGGUCGGGGAAGAUGUAUUCUUCUCAUAAGAUAUAGUCGGACCUCUCCUUAAUGGGAGCUAGCGGAUGAAGUGAUGCAACACUGGAGCCGCUGGGAACUAAUUUGUAUGCGAAAGUAUAUUGAUUAGUUUUGGAGUACUCGUGGUCG
Outline: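 DiMSum derived fitness as the error-weighted combination of fold changes across replicates, kanamycin versus no kanamycin, normalised to wild type. E. coli BL21(DE3) held the library, which randomised all eight P1ex-region intron nucleotides within the knt kanamycin-resistance gene on pET-22b(+). Six replicate transformations grew overnight at 37°C or 30°C on LB agar with or without 25 μg/mL kanamycin, also containing 100 μg/mL carbenicillin, 50 μM IPTG and 0.2% rhamnose, and pooled colonies were amplicon-sequenced on an Illumina HiSeq 2500.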

| Sequence | self-splicing fitness (ln) (30 °C) | self-splicing fitness (ln) (37 °C) |
| --- | --- | --- |
| ACGAAGCAAUAUUACGCAUG | -1.79 ± 0.062 | -0.62 ± 0.083 |
| ACGAAGCAAUAUUACGCCAA | -2.55 ± 0.31 | -1.98 ± 0.23 |
| ACGAAGCAAUAUUACGCCUG | -0.445 ± 0.095 | 0.217 ± 0.12 |
| ACGAAGCAAUAUUACGCGCC | -0.967 ± 0.1 | 0.356 ± 0.14 |
| ACGAAGCAAUAUUACGCGGU | -3.65 ± 0.18 | -1.48 ± 0.1 |
| ACGAAGCAAUAUUACGGAGA | -2.86 ± 0.2 | -2.42 ± 0.22 |
| ACGAAGCAAUAUUACGGAUU | -1.86 ± 0.087 | -1.67 ± 0.11 |
| ACGAAGCAAUAUUACGGCGC | -0.589 ± 0.086 | -0.278 ± 0.12 |
| ACGAAGCAAUAUUACGGGCG | -1.15 ± 0.072 | -0.126 ± 0.1 |
| ACGAAGCAAUAUUACGUAGU | -3.12 ± 0.12 | -2.13 ± 0.17 |
| ACGAAGCAAUAUUACGUAUC | -4.38 ± 0.27 | -2.66 ± 0.22 |
| ACGAAGCAAUAUUACGUCGG | -1.67 ± 0.1 | -1.65 ± 0.11 |
| ACGAAGCAAUAUUACGUGUU | -2.94 ± 0.07 | -1.81 ± 0.07 |
| ACGAAGCAAUAUUACGUUAA | -3.25 ± 0.22 | -2.09 ± 0.14 |
| ACGAAGCAAUAUUACGUUCG | -1.3 ± 0.083 | -0.906 ± 0.11 |
| ACGAAGCAAUAUUACGUUGU | -2.95 ± 0.14 | -1.86 ± 0.12 |
| ACGCAGCAAUAUUACGACUC | -0.833 ± 0.08 | 0.365 ± 0.096 |
| ACGCAGCAAUAUUACGAGGU | -3.55 ± 0.17 | -2.27 ± 0.16 |
| ACGCAGCAAUAUUACGAUGG | -1.82 ± 0.097 | -1.59 ± 0.13 |
| ACGCAGCAAUAUUACGCAAG | -2.25 ± 0.081 | -0.638 ± 0.091 |
| ACGCAGCAAUAUUACGCACU | -0.177 ± 0.08 | 0.479 ± 0.11 |

| Sequence | self-splicing fitness (ln) (30 °C) | self-splicing fitness (ln) (37 °C) |
| --- | --- | --- |
| ACGCAGCAAUAUUACGCAGA | -2.74 ± 0.18 | -1.92 ± 0.12 |
| ACGCAGCAAUAUUACGCAUC | -2.1 ± 0.11 | -1.47 ± 0.16 |
| ACGCAGCAAUAUUACGCCUG | -2.79 ± 0.2 | -2.42 ± 0.33 |
| ACGCAGCAAUAUUACGCGCC | -2.5 ± 0.15 | -3.01 ± 0.27 |
| ACGCAGCAAUAUUACGCUAG | -3.42 ± 0.22 | -2.33 ± 0.24 |
| ACGCAGCAAUAUUACGCUGA | -0.604 ± 0.095 | -0.835 ± 0.11 |
| ACGCAGCAAUAUUACGCUGG | -2.25 ± 0.12 | -1.48 ± 0.14 |
| ACGCAGCAAUAUUACGCUGU | -2.71 ± 0.14 | -3.83 ± 0.28 |
| ACGCAGCAAUAUUACGGCGU | -3.68 ± 0.16 | -2.23 ± 0.14 |
| ACGCAGCAAUAUUACGGGGA | -2.28 ± 0.091 | -2.14 ± 0.1 |
| ACGCAGCAAUAUUACGGGGU | -4.68 ± 0.22 | -2.34 ± 0.12 |
| ACGCAGCAAUAUUACGUACA | -2.03 ± 0.11 | -0.547 ± 0.12 |
| ACGCAGCAAUAUUACGUAGG | -2.12 ± 0.096 | -2.86 ± 0.13 |
| ACGCAGCAAUAUUACGUGCC | -1.7 ± 0.11 | -0.959 ± 0.12 |
| ACGCAGCAAUAUUACGUGGG | -3.55 ± 0.13 | -2.37 ± 0.12 |
| ACGCAGCAAUAUUACGUGUG | -2.86 ± 0.11 | -2.31 ± 0.12 |
| ACGCAGCAAUAUUACGUGUU | -4.19 ± 0.1 | -2.85 ± 0.14 |
| ACGCAGCAAUAUUACGUUCA | -1.96 ± 0.11 | -0.844 ± 0.094 |
| ACGCAGCAAUAUUACGUUGG | -2.94 ± 0.082 | -1.91 ± 0.096 |
| ACGGAGCAAUAUUACGAGCU | -3.64 ± 0.46 | -2.24 ± 0.32 |
| ACGGAGCAAUAUUACGAGUC | -3.83 ± 0.33 | -2.64 ± 0.38 |

From the supplement of paper PMC7877785
